Reference: patent US8338155B2, “Modified mevalonate kinase with reduced feedback inhibition” (DSM IP Assets B.V., priority 2004, dated 2012)

Key:
[1] = system: Saccharomyces cerevisiae mevalonate kinase; experiment: Mevalonate kinase activity assay (NADH consumption, photometric at 340 nm): specific activity; type: biochemical; details: purified His6-tagged enzyme; WT = non-mutated His6-tagged mevalonate kinase
Source text: Methods for measuring specific activity are known to the person skilled in the art. The specific activity may for instance be determined via measuring the consumption of NADH. Suitable conditions for such measurement may be those as e.g. outlined in Example 1 except that, typically, saturating substrate concentrations are used or, in the case of enzyme inhibition at high substrate concentrations, at substrate concentrations that provide maximal activity under the particular experimental conditions.
(§1) For preparing mevalonate as substrate, 130 mg of DL-mevalonate lactone (FLUKA Chemie AG, Buchs, Switzerland) were dissolved in 5.5 ml of 0.2 M KOH and incubated for 15 min at 50° C. The solution was then adjusted to pH 7.0 by addition of 0.1 M HCl at room temperature (RT). Except if stated otherwise, the assay mixture consisted of 100 mM K2BPO/KH2PO4 (pH 7.0), 1 mM ATP, 2 mM MgCl2, 1 mM mevalonate, 0.5 mM phosphoenolpyruvate (PEP), 0.32 mM NADH, 20 U/ml pyruvate kinase and 27 U/ml lactate dehydrogenase (Sigma-Aldrich, St. Louis, Mo., USA). Inhibition was tested by adding 1 μM FPP.
(§2) Purification of His6-tagged mevalonate kinase and of His6-tagged mevalonate kinase mutant enzymes was done with Ni-NTA chromatography using the QIAexpress system/reagents of Qiagen. Upon addition of purified (His6-tagged) mevalonate kinase, enzymatic reaction reflected by consumption of NADH was followed by photometric measurement at 340 nm. One unit (1 U) of mevalonate kinase activity catalyzes the phosphorylation of 1 μmol of mevalonate per min.
(§3) Preparation of Mevalonate and Activity Measurement was Exactly Performed as Described in Example 1. 1 μM FPP was used for inhibition assays performed with the Saccharomyces cerevisiae mevalonate kinase wild-type enzyme and its mutants.

[2] = system: Saccharomyces cerevisiae mevalonate kinase; experiment: Inhibition of mevalonate kinase activity by the feedback inhibitor FPP: feedback resistance; type: biochemical; details: 1 μM FPP; % resistance=100·((d/c)−(b/a))/(1−(b/a)) relative to wild-type
Description: “Feedback resistance” as used herein may be any increase in resistance to “feedback inhibition” (as defined above). Feedback resistance can be analyzed in different ways known to those skilled in the art. An appropriate example of such an analysis is shortly described herein: mevalonate kinase activity is measured in an activity assay at non-saturating concentrations of for instance ATP (or of another phosphate donor) and mevalonate (or mevalonate analogue), i.e., at for instance ATP (or phosphate donor) and mevalonate (or mevalonate analogue) concentrations around which the reaction rate is sensitive to changes of these substrate concentrations, e.g., at concentrations around the respective Km values of the enzyme under investigation for these substrates. The activities of both wild-type mevalonate kinase and of a variant/mutant of this enzyme are measured under otherwise identical conditions both in the absence and presence of a relevant concentration of a feedback inhibitor, i.e., at a concentration of feedback inhibitor affording significant inhibition of the wild-type mevalonate kinase. If the extent of inhibition (e.g., % inhibition) by the feedback inhibitor is lower for the mutant than for the wild-type enzyme, then the mutant is feedback resistant in the context of the present patent application. Once a feedback resistant variant/mutant has been identified, the same procedure as described above may be applied to identify further improved mutants, i.e., mutants that are even more feedback resistant. Feedback resistance (%) is calculated as follows: if (a) and (b) are the measured mevalonate kinase activities of the wild-type enzyme in the absence and presence, respectively, of the feedback inhibitor (e.g., FPP), and if (c) and (d) are the measured mevalonate kinase activities of the mutant enzyme in the absence and presence, respectively, of the same feedback inhibitor, then % feedback resistance is: % resistance=100·((d/c)−(b/a))/(1−(b/a))
as §1, §2, §3
Feedback resistance (%) was calculated according to the following formula: % resistance=100·((d/c)−(b/a))/(1−(b/a)) wherein (a) and (b) refer to the measured mevalonate kinase activities of the wild-type enzyme in the absence and presence, respectively, and (c) and (d) refer to the measured mevalonate kinase activities of the mutant enzyme in the absence and presence, respectively, of FPP. The results are shown in Tab. 1, wherein WT represents the non-mutated mevalonate kinase containing a His6-tag (SEQ ID NO:3).

Molecule | Specific activity (% of wild-type) [1] | Feedback resistance (%) [2]
F59S: Saccharomyces cerevisiae mevalonate kinase mutant with substitution F59S (protein, listed as Saccharomyces cerevisiae) MSLPFLTSAPGKVIIFGEHSAVYNKPAVAASVSALRTYLLISESSAPDTIELDFPDISSNHKWSINDFNAITEDQVNSQKLAKAQQATDGLSQELVSLLDPLLAQLSESFHYHAAFCFLYMFVCLCPHAKNIKFSLKSTLPIGAGLGSSASISVSLALAMAYLGGLIGSNDLEKLSENDKHIVNQWAFIGEKCIHGTPSGIDNAVATYGNALLFEKDSHNGTINTNNFKFLDDFPAIPMILTYTRIPRSTKDLVARVRVLVTEKFPEVMKPILDAMGECALQGLEIMTKLSKCKGTDDEAVETNNELYEQLLELIRINHGLLVSIGVSHPGLELIKNLSDDLRIGSTKLTGAGGGGCSLTLLRRDITQEQIDSFKKKLQDDFSYETFETDLGGTGCCLLSAKNLNKDLKIKSLVFQLFENKTTTKQQIDDLLLPGNTNLPWTS | 31 % of wild-type | 56%
L106P, S218P: Saccharomyces cerevisiae mevalonate kinase mutant with substitutions L106P and S218P (protein, listed as Saccharomyces cerevisiae) MSLPFLTSAPGKVIIFGEHSAVYNKPAVAASVSALRTYLLISESSAPDTIELDFPDISFNHKWSINDFNAITEDQVNSQKLAKAQQATDGLSQELVSLLDPLLAQPSESFHYHAAFCFLYMFVCLCPHAKNIKFSLKSTLPIGAGLGSSASISVSLALAMAYLGGLIGSNDLEKLSENDKHIVNQWAFIGEKCIHGTPSGIDNAVATYGNALLFEKDPHNGTINTNNFKFLDDFPAIPMILTYTRIPRSTKDLVARVRVLVTEKFPEVMKPILDAMGECALQGLEIMTKLSKCKGTDDEAVETNNELYEQLLELIRINHGLLVSIGVSHPGLELIKNLSDDLRIGSTKLTGAGGGGCSLTLLRRDITQEQIDSFKKKLQDDFSYETFETDLGGTGCCLLSAKNLNKDLKIKSLVFQLFENKTTTKQQIDDLLLPGNTNLPWTS | 42 % of wild-type | 24%
I142N, L158S, L231I, T367S: Saccharomyces cerevisiae mevalonate kinase mutant with substitutions I142N, L158S, L231I and T367S (protein, listed as Saccharomyces cerevisiae) MSLPFLTSAPGKVIIFGEHSAVYNKPAVAASVSALRTYLLISESSAPDTIELDFPDISFNHKWSINDFNAITEDQVNSQKLAKAQQATDGLSQELVSLLDPLLAQLSESFHYHAAFCFLYMFVCLCPHAKNIKFSLKSTLPNGAGLGSSASISVSLASAMAYLGGLIGSNDLEKLSENDKHIVNQWAFIGEKCIHGTPSGIDNAVATYGNALLFEKDSHNGTINTNNFKFIDDFPAIPMILTYTRIPRSTKDLVARVRVLVTEKFPEVMKPILDAMGECALQGLEIMTKLSKCKGTDDEAVETNNELYEQLLELIRINHGLLVSIGVSHPGLELIKNLSDDLRIGSTKLTGAGGGGCSLTLLRRDISQEQIDSFKKKLQDDFSYETFETDLGGTGCCLLSAKNLNKDLKIKSLVFQLFENKTTTKQQIDDLLLPGNTNLPWTS | 61 % of wild-type | 58%
K83E, S249P: Saccharomyces cerevisiae mevalonate kinase mutant with substitutions K83E and S249P (protein, listed as Saccharomyces cerevisiae) MSLPFLTSAPGKVIIFGEHSAVYNKPAVAASVSALRTYLLISESSAPDTIELDFPDISFNHKWSINDFNAITEDQVNSQKLAEAQQATDGLSQELVSLLDPLLAQLSESFHYHAAFCFLYMFVCLCPHAKNIKFSLKSTLPIGAGLGSSASISVSLALAMAYLGGLIGSNDLEKLSENDKHIVNQWAFIGEKCIHGTPSGIDNAVATYGNALLFEKDSHNGTINTNNFKFLDDFPAIPMILTYTRIPRPTKDLVARVRVLVTEKFPEVMKPILDAMGECALQGLEIMTKLSKCKGTDDEAVETNNELYEQLLELIRINHGLLVSIGVSHPGLELIKNLSDDLRIGSTKLTGAGGGGCSLTLLRRDITQEQIDSFKKKLQDDFSYETFETDLGGTGCCLLSAKNLNKDLKIKSLVFQLFENKTTTKQQIDDLLLPGNTNLPWTS | 78 % of wild-type | 37%
H111N, K375N: Saccharomyces cerevisiae mevalonate kinase mutant with substitutions H111N and K375N (protein, listed as Saccharomyces cerevisiae) MSLPFLTSAPGKVIIFGEHSAVYNKPAVAASVSALRTYLLISESSAPDTIELDFPDISFNHKWSINDFNAITEDQVNSQKLAKAQQATDGLSQELVSLLDPLLAQLSESFNYHAAFCFLYMFVCLCPHAKNIKFSLKSTLPIGAGLGSSASISVSLALAMAYLGGLIGSNDLEKLSENDKHIVNQWAFIGEKCIHGTPSGIDNAVATYGNALLFEKDSHNGTINTNNFKFLDDFPAIPMILTYTRIPRSTKDLVARVRVLVTEKFPEVMKPILDAMGECALQGLEIMTKLSKCKGTDDEAVETNNELYEQLLELIRINHGLLVSIGVSHPGLELIKNLSDDLRIGSTKLTGAGGGGCSLTLLRRDITQEQIDSFNKKLQDDFSYETFETDLGGTGCCLLSAKNLNKDLKIKSLVFQLFENKTTTKQQIDDLLLPGNTNLPWTS | 87 % of wild-type | 65%
P55L, C117S: Saccharomyces cerevisiae mevalonate kinase mutant with substitutions P55L and C117S (protein, listed as Saccharomyces cerevisiae) MSLPFLTSAPGKVIIFGEHSAVYNKPAVAASVSALRTYLLISESSAPDTIELDFLDISFNHKWSINDFNAITEDQVNSQKLAKAQQATDGLSQELVSLLDPLLAQLSESFHYHAAFSFLYMFVCLCPHAKNIKFSLKSTLPIGAGLGSSASISVSLALAMAYLGGLIGSNDLEKLSENDKHIVNQWAFIGEKCIHGTPSGIDNAVATYGNALLFEKDSHNGTINTNNFKFLDDFPAIPMILTYTRIPRSTKDLVARVRVLVTEKFPEVMKPILDAMGECALQGLEIMTKLSKCKGTDDEAVETNNELYEQLLELIRINHGLLVSIGVSHPGLELIKNLSDDLRIGSTKLTGAGGGGCSLTLLRRDITQEQIDSFKKKLQDDFSYETFETDLGGTGCCLLSAKNLNKDLKIKSLVFQLFENKTTTKQQIDDLLLPGNTNLPWTS | 60 % of wild-type | 58%
WT: non-mutated Saccharomyces cerevisiae mevalonate kinase containing a His6-tag (SEQ ID NO:3) (protein, listed as Saccharomyces cerevisiae, His6-tag) MRGSHHHHHHGSACSLPFLTSAPGKVIIFGEHSAVYNKPAVAASVSALRTYLLISESSAPDTIELDFPDISFNHKWSINDFNAITEDQVNSQKLAKAQQATDGLSQELVSLLDPLLAQLSESFHYHAAFCFLYMFVCLCPHAKNIKFSLKSTLPIGAGLGSSASISVSLALAMAYLGGLIGSNDLEKLSENDKHIVNQWAFIGEKCIHGTPSGIDNAVATYGNALLFEKDSHNGTINTNNFKFLDDFPAIPMILTYTRIPRSTKDLVARVRVLVTEKFPEVMKPILDAMGECALQGLEIMTKLSKCKGTDDEAVETNNELYEQLLELIRINHGLLVSIGVSHPGLELIKNLSDDLRIGSTKLTGAGGGGCSLTLLRRDITQEQIDSFKKKLQDDFSYETFETDLGGTGCCLLSAKNLNKDLKIKSLVFQLFENKTTTKQQIDDLLLPGNTNLPWTS | 100 % of wild-type | 0%
